According to the DeepSol protein solubility set:

Experiment: soluble on expression in E. coli; label from the status in PepcDB or PDB records
In the case of “NFCVYMCPYSRVQSVLYDNDTIMTVYDYERGGKVFDPKGIKLWKKPETPNAECTGCELCVKVCPTHIDIRKGMQLECINCLECADAC”, the “soluble on expression in E. coli” value was “not soluble”. In the case of “NGSQQQILSNISSMGTNTIDVRPGKGFGDRRSGRVKTLTADDAKSLESLPFVDSVTPSLSNSLTVRYANQDATASVEGVGEDYFRVRGYEIAKGQFWDEESVNSLAQEAVIDDNTRKEMFADRNP”, the “soluble on expression in E. coli” value was “not soluble”. With “NKDGPVCLQVKPCTPEFYQTHFQLAYRLQSRPRGLALVLSNVHFTGEKELEFRSGGDVDHSTLVTLFKLLGYDVHVLCDQTAQEMQEKLQNFAQLPAHRVTDSCIVALLSHGVEGAIYGVDGKLLQLQEVFQLFDNANCPSLQNKPKMFFIQACRGDETDRGVDQQD” the “soluble on expression in E. coli” value was “soluble”. For “NKDMEFTLRANFTYSTNKVNYYEEGDTKYEYTSATGRPNGYMKGYIALGLFKDQEEINNSPKQDFGSYLPGDIKYKDVNGDGVVNSDDQVPVSYQDYPRLMYGFGGEFRWKKLTLGVRFSGIGNTDYYKIWTWGSNNVGYIPFYDGKLGNVLTIAANPANRWIPADYDDPSIPASMRENPNAMFPRLSYGSNQNNAQASTFWKGNRKYLRLDEISLNYNCNCNLLKSIGINSIDLAVVANDLHTWDSVKLFDPELATSNGRAYPIPGRVSFQAIVHF”, the “soluble on expression in E. coli” value was “not soluble”. For “NKMPVIEVQGIVPTEIIVSPRYYRMGFVGGDLSVPVGQFVFRGEAAFNIDKHFTYKSHAEQEGFQTINWLAGADWYAPGEWMISGQFSMESIFRYRDFISQRQHSTLITLNVSKKFFGSTLQLSDFTYYDLTGKGWFSRFAADYALNDQIHLMAGYDWFSSKGSGIFDRYKDNSELWFKARYSF”, the “soluble on expression in E. coli” value was “not soluble”. With “NKNFTWTSNFNLTYQRALVDKLPEGKDIQYGDGEMYLHREGESMYTFYLPEWKGVNPETGLGEFWLDPEDHSKGVVNDYSEAGKGIVGKALPDVIGGFSNTFTYKDFDLSFLITYQFGGDMFDYPGYFSHHDGVRIGSMNLSEDVAGNYWKNPGDKVDNPMPIYANPYRWDRFSSRTIKSTDNIRLREMTVGYTLPVLKKHISNFRIYFRANNLAMLWSKTKNIDPDVAINGYRQADTPALRSCVFGINIKL” the “soluble on expression in E. coli” value was “not soluble”. With “NLNMAVSVTPIRDTKWLTLEVCREFQRGTCSRPDTECKFAHPSKSCQVENGRVIACFDSLKGRCSRENCKYLHPPPHLKTQLEINGRNNLIQQKNMAMLAQQMQLANAMMPGAPLQPVPMFSVAPSLATNASAAAFNPYLGPVSPSLVPAEILPTAPMLVTGNPGVPVPAAAAAAAQKLMRTDRLEVCREYQRGNCNRGENDCRFAHPADSTMIDTNDNTVTVCMDYIKGRCSREKCKYFHPPAHLQAKIKAAQYQVNQAAAAQAAATAAAMGIPQAVLPPLPKRPALEKTNGATAVFNTGIFQYQQALANMQLQQHTAFLPPVPMVHGATPATVSAATTSATSVPFAATATANQIPIISAEHLTSHKYVTQM” the “soluble on expression in E. coli” value was “soluble”. With “NNADYIEMKVPAQPEYVGIIRLTLSGVASRMGYTYDEIEDLKIAVSEACTNAVQHAYKEDKNGEVSIRFGVFEDRLEVIVADEGDSFDFDQKQQDLGPYTPSHTVDQLSEGGLGLYLMETLMDEVRVQNHSGVTVAMTKYLNGERVDHDTTIKNYETN” the “soluble on expression in E. coli” value was “not soluble”. For “NNELSPVALRQMSCAAGTTQTACTDDNALAYYNNSKGGRFVLALLSDHQDLKWARFPKSDGTGTIYTELEPPCRFVTDTPKGPKVKYLYFIKGLNNLNRGMVLESLAATVRLQLEHHHHHH”, the “soluble on expression in E. coli” value was “soluble”. In the case of “NNLLYKRWVKQRAADVDKWSDGRLGYVHIQSMGDDSFRSVYSDILGKYNNREGIVIDTRFNGGGRLHEDIEVLFSGKKYFTQVVRGREACDMPSRRWNKPSIMLTCEANYSNAHGTPWVYSHQKLGKLVGMPVPGTMTSVSWERLQDPSLVFGIPVIGYRLPDGSYLENTQLEPDIKVANSPETIVKGEDTQLKTAVEELLKELPAGKGKKH”, the “soluble on expression in E. coli” value was “not soluble”. With “NPMSVLLGKAEQLNLLYDKYWDDSMRLNPLQATLQGDAYHGDRMPNFLSAEFRKQHHDFIEKWLKKVEMVGADGLDGQAFISYQIFVRDARNSLHAERYPNWMLPINQFYNIANVAVVLGSGNGAQPFNTVQDYDNWAHRSLGIPALFNQAIVNMRLGMKSGVVQPKVLMEKVIPQLDSIIKPTAEETLFWVPIRNMSVTFSKENRQRITAEYKSIIEYRLLPAYRALRNFIATEYLPVCRDSVGLSALPGGASWYAYTVRQSTTTNMTPEQIHQLGLKEVERLQAEIQSVMRQLNFNGSMQKFFSFMQNNEYFTFGSEKEMLAYYRDLRTRVEARVPALFSLVPKAGFEILPVESFRAPSAAAGSYMPPSSNRRHNGVFYANTNDLSSRRTWNAEKLFLHQGIPGYHFQLGLQQELRNLPKFRRLGGETAFIEGWGLYAESLGKELGLYQDAYNYFGYLQDALSRAIRLVVDTGLHTKGWTRAQVVDYIVENSATSPIEAEAEVDRYIAIPGQALAYKVGELKIHQLRQYAQLTLGPMFDLREFHAEILKDGSVPLDILQQKIERWIAVK” the “soluble on expression in E. coli” value was “not soluble”. With “NRYAKILVEKEKNRRTVMEQKMELESYKKVNVANDRYITLLHDTNHHIKTVYSLLKKDKKDDAMNMLSKLFDKYEKAEMIEYSGNTILNTILSDYKEKSSKENIECDIFVERGFNIEYVDEIDLVAMLSNLLSNSYEAAAKSDMKKIRIQMFMQNDGSFSVIKIENSYTSMIVEEDSVLKTTKQNKEFHGLGIKSVQQIAEKYNGWLSSTWSDNVFKSVLILENSMC” the “soluble on expression in E. coli” value was “not soluble”. With “NSSAQLLELCTEHGLSISSLMMANELSLASEEEVKAKLWNIWQTMKTCIERGYQKEGILPGGLKLRRRAPALYRRLKAEGRNNVDPLTAMDWVDLFALSVNEQNAAGDRVVTAPTNGAAGIIPAVLCYYDTFVQEVDIDVCARYLLTAAAIGILYKKNASISGAEVGCQGEVGVACSMAAGALTEIMGGTVEHVENAAEIGMEHNLGLTCDPVGGLVQVPCIERNAMGAIKAINASRMALRGDGNHKVSLDKVIKTMMDTGKDMRSKYKETAKGGLAVN” the “soluble on expression in E. coli” value was “not soluble”. With “NSSKSLEAELVRDRQELIDARKKELKAYMMMGVTAIKPLYDSDVNGSNKQAAKEILKAMRFESDGYFFAYDSQGINTLHAIKPSLEGKNLYDLKDENGVAVIAGLIDASQKGDGFLYFSWHKPTINAQAPKLGYAEYLQKWDWVLGTGIYIDDIDQQVAMQRELRTQELNQHT” the “soluble on expression in E. coli” value was “soluble”. With “NTFYEITLEDESVLLDEVVAIGYGTQSKATVTSGVVSVKKAELMSSVSASPLNNLQGKVAGLDIRQTTGQPGAQPVVLIRGGSTDPANDSPLFVIDGVVRSNMNGLNQEDIESMEVLKDAASAAIYGAKAANGIILITTKQGSSKD” the “soluble on expression in E. coli” value was “not soluble”. In the case of “NTRGMALFADGGIVGTKPYAASGSYIKKMSDYCKGCHYDNKARSGEGSCPFNSLYWRFMDKHEKRLATNPRIGMIFRSWDNMEASQRQAILDT”, the “soluble on expression in E. coli” value was “not soluble”. With “PDFTPQKFKEKTAEQLRVLQASFLNSSVLTDEELNRLRAQTKLTRREIDAWFTEKKKSKALKEEKMEIDESNAGSS” the “soluble on expression in E. coli” value was “soluble”. For “PDLYNHAIVIGYGRVGSMLAQLLQSRHVPLLVIDDNSEHVLKAHAAGIPAIRGSAAADLVLAEAHPERAKIAVLAIPQPLEAGEILAKLRALNPELTLVARAQNDAEVKHLLGHGADATVVAEHEMAHSLAEMVLSSTNH”, the “soluble on expression in E. coli” value was “not soluble”. For “PDMKESMSDLYYEMISSAQKSIWIATPYFVPNESIRTALKAAATKGVEVRVMVPEKNDSFLTQYASRSYFPELLLEGIEVYSYQKGFMHQKVMIIDGDLASVGTANMDMRSFQLNFEVNVFFTDAEAIRTLEAHFEEDMQESEKLS”, the “soluble on expression in E. coli” value was “soluble”. With “PEGPEIRRAADNLEAAIKGKPLTDVWFAFPQLKTYQSQLIGQHVTHVETRGKALLTHFSNDLTLYSHNQLYGVWRVVDTGEEPQTTRVLRVKLQTADKTILLYSASDIEMLRPEQLTTHPFLQRVGPDVLDPNLTPEVVKERLLSPRFRNRQFAGLLLDQAFLAGLGNYLRVEILWQVGLTGNHKAKDLNAAQLDALAHALLEIPRFSYATRGQVDENKHHGALFRFKVFHRDGEPCERCGSIIEKTTLSSRPFYWCPGCQH” the “soluble on expression in E. coli” value was “soluble”. With “PIKMGWLKKQRSIVKNWQQRYFVLRAQQLYYYKDEEDTKPQGCMYLPGCTIKEIATNPEEAGKFVFEIIPASWDQNRMGQDSYVLMASSQAEMEEWVKFLRRVAG” the “soluble on expression in E. coli” value was “soluble”. In the case of “PIPAWASGNLLTQAIRQQYYKPIDVDRMYGTIDSPKLEELFNKS”, the “soluble on expression in E. coli” value was “soluble”. With “PISNIFAGLLFYVLSDYVTEDTGIRITRAELEKTIVEHGGKLIYNVILKRHSIGDVRLISCKTTTECKALIDRGYDILHPNWVLDCIAYKRLILIEPNYCFNVSQKMRAVAEKRVDCLGDSFENDISETKLSSLYKSQLSLPPMGELEIDSEVRRFPLFLFSNRIAYVPRRKISTEDDIIEMKIKLFGGKITDQQSLCNLIIIPYTDPILRKDCMNEVHEKIKEQIKASDTIPKIARVVAPEWVDHSINENCQVPEEDFPVVNY” the “soluble on expression in E. coli” value was “soluble”. For “PKDDRLSAWKFWALYAADTGGALRIDAGAVAAVTAGGNSLLAVGITEVIGDFHAGEIVEILGPEGEIIGRGEVAYDSAVLITMLGKQTAQLPEGLQRPVVHADYLSDYASRA”, the “soluble on expression in E. coli” value was “not soluble”. In the case of “PKYQSTAALLVNRSQDDTAATALNDQQADVGLIYTYKDLITRPVILNKVAKELKSTYPTLTSTALAKMITVSSTTNSQIFSIAVRSTSSQEAKDIANETASVFKNEAVKLMGKTISNVTIVSSGLKNNTPVFPNTK”, the “soluble on expression in E. coli” value was “not soluble”. In the case of “PLHHLMIGTWTPPGAIFTVQFDDEKLTCKLIKRTEIPQDEPISWMTFDHERKNIYGAAMKKWSSFAVKSPTEIVHEASHPIGGHPRANDADTNTRAIFLLAAKQPPYAVYANPFYKFAGYGNVFSVSETGKLEKNVQNYEYQENTGIHGMVFDPTETYLYSADLTANKLWTHRKLASGEVELVGSVDAPDPGDHPRWVAMHPTGNYLYALMEAGNRICEYVIDPATHMPVYTHHSFPLIPPGIPDRDPETGKGLYRADVCALTFSGKYMFASSRANKFELQGYIAGFKLRDCGSIEKQLFLSPTPTSGGHSNAVSPCPWSDEWMAITDDQEGWLEIYRWKDEFLHRVARVRIPEPGFGMNAIWYD”, the “soluble on expression in E. coli” value was “soluble”. In the case of “PLVCLADFKAHAQKQLSKTSWDFIEGEADDGITYSENIAAFKRIRLRPRYLRDMSKVDTRTTIQGQEISAPICISPTAFHSIAWPDGEKSTARAAQEANICYVISSYASYSLEDIVAAAPEGFRWFQLYMKSDWDFNKQMVQRAEALGFKALVITIDTPVLGNRRRDKRNQLNLEANILLKDLRALKEEKPTQSVPVSFPKASFCWNDLSLLQSITRLPIILKGILTKEDAELAMKHNVQGIVVSNHGGRQLDEVSASIDALREVVAAVKGKIEVYMDGGVRTGTDVLKALALGARCIFLGRPILWGLACKGEDGVKEVLDILTAELHRCMTLSGCQSVAEISPDLIQFSRL”, the “soluble on expression in E. coli” value was “soluble”. With “PMLEVFYSGDRPPDRTRKQAFAAEASAIFQRVIGTPPGRLQLIIQIVSPENTLAVIDLDRPDSDTTAEPDQQ” the “soluble on expression in E. coli” value was “soluble”. With “PPPAPIPDLKVFEREGVQLNLSFIRPPENPALLLITITATNFSEGDVTHFICQAAVPKSLQLQLQAPSGNTVPARGGLPITQLFRILNPNKAPLRLKLRLTYDHFHQSVQEIFEVNNLPVESWQ” the “soluble on expression in E. coli” value was “soluble”. In the case of “PQEEVVRLHASSGTTGKPTVVGYTQNDIDTWANVVARSIRAAGGRKGDKVHVSYGYGLFTGGLGAHYGAERLGCTVIPMSGGQTEKQVQLIRDFHPDIIMVTPSYMLNLADEIERQGIDPHDLKLRLGIFGAEPWTDELRRSIEQRMGINALDIYGLSEIMGPGVAMECIETKDGPTI”, the “soluble on expression in E. coli” value was “not soluble”.
